B1: Ribonuclease, P00648 (parent)
chain: MMKMEGIALKKRLSWISVCLLVLVSAAGMLFSTAAKTETSSHKAHTEAQVINTFDGVADYLQTYHKLPDNYITKSEAQALGWVASKGNLADVAPGKSIGGDIFSNREGKLPGKSGRTWREADINYTSGFRNSDRILYSSDWLIYKTTDHYQTFTKIR

Variants of: B1
Conditions: Bacillus amyloliquefaciens, pH 6.3, 25 °C, Fluorescence, MES 450 mM, reversible: yes, structure 1BNI, whole UniProt chain shown

Variant | ddG of mutation (higher = less stable) (GdnHCl) | denaturant m value (GdnHCl) | denaturant midpoint (higher = more stable) (GdnHCl) | unfolding free energy (GdnHCl) | ddG of mutation (higher = less stable) (Urea) | denaturant m value (Urea) | denaturant midpoint (higher = more stable) (Urea) | unfolding free energy (Urea)
MMKMEGIALKKRLSWISVCLLVLVSAAGMLFSTAAKTETSSHKAHTEAQVINTFDGVADYLQTYHKLPDNYITKSEAQALGWVASKGNLADVAPGKSIGGDIFSNREGKLPGKSGRTWREADINYTSGFRNCDRILYSSDWLIYKTTDCYQTFTKIR | -4.1 kcal/mol | 4.3 kcal/mol/M | 3 M | 12.9 kcal/mol |  |  |  | 
MMKMEGIALKKRLSWISVCLLVLVSAAGMLFSTAAKTETSSHKAHTEAQVINTFDGVADYLQTYHKLPDNYITKSEAQALGWVASKGNLCDVAPGKSIGGDIFSNREGKLPGKSGRTWREADINYTCGFRNSDRILYSSDWLIYKTTDHYQTFTKIR |  |  |  |  | -1.21 kcal/mol | 1.73 kcal/mol/M | 5.77 M | 10 kcal/mol
